Measurements reported in US7097843.

biological target: recombinant HLA-A*0201 refolded with purified human beta2-microglobulin (human); test: circular dichroism melting of the refolded peptide-HLA-b2m complex (temperature at which 50% is melted)

| Binder | Tm [°C] |
| --- | --- |
| TLGIVCPIC (modifications not checked) [peptide A2.4] | 41.5 |
| LLMGTLGIVCPIC (modifications not checked) [peptide A2.1/4] | 41 |
| YMLDLQPET (modifications not checked) [peptide A2.2] | 52.5 |
